{"source": "the domain aggregation screens of Martell et al. (2025)", "assay": "soluble fraction after stress (log2 fold change); higher = more stays soluble; pooled small domains, quantitative proteomics", "conditions": "stress: 50 degC", "method_in_brief": "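Pooled custom libraries of small protein domains were measured in a high-throughput format, with quantitative proteomics as the read-out. Each library was stressed at 50°C. Aggregation propensity is given as the base-two logarithm of the fold change in how much of each protein stays soluble after the stress. Higher values mean a larger share of the protein remains in solution.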", "data": [{"sequence": "HMAAADLNMRAKLADLGGMSYGELSIWEKTHGMEFAAWEHEWEKLNSGTQADGLKFPKHLPEGFPT", "values": [{"measurement": "soluble fraction (log2)", "value": 0.0468}]}, {"sequence": "HMAAAKDVMDWQNAIRGLTDAKGKPYSPTYLKTVHNQLSALFNHAVRYYGLQVNPAAKAGNMGVEE", "values": [{"measurement": "soluble fraction (log2)", "value": -0.0939}]}, {"sequence": "HMAADDGSARAEQLREMYSLISGLDKLDKAIILMWLDERSYDEIAEVTGFTRNNVATRLHRIKSRLARQSN", "values": [{"measurement": "soluble fraction (log2)", "value": -0.783}]}, {"sequence": "HMAAEIGSGVVDAYDLRLRSQPSTDAETIIYLDNGAKLSVQEDLGDWYKVVSGTYTGYVSAEYVAYTPSPE", "values": [{"measurement": "soluble fraction (log2)", "value": -1.13}]}, {"sequence": "HMAAELHPYGADSYRGDNPPAGYEIKAKEESKKFHTPSSPWYGRTIAEIWFRTEEAAEAAGFINAVK", "values": [{"measurement": "soluble fraction (log2)", "value": -0.23}]}, {"sequence": "HMAAELQALSVRELEVLDQLAGGASNREIAQRLYISENTVRNHVHSILTKLKLQNRTQLVGMT", "values": [{"measurement": "soluble fraction (log2)", "value": -0.239}]}, {"sequence": "HMAAESWTEKSRALAAAGLVVMGRDAQTKIEELTNLAPLIEAANASNTRLLTSQSIDELLSIVPTEENL", "values": [{"measurement": "soluble fraction (log2)", "value": 0.0724}]}, {"sequence": "HMAAGKGVTTGSVRLRKGSNTDSAIIATLKKDTELILYGKKDGWYSVKTSDGTEGFVSSKYVKVTEAY", "values": [{"measurement": "soluble fraction (log2)", "value": 0.313}]}, {"sequence": "HMAAGLTPKQKAFADNYIKNGGNAAEAARAAGYSLKNVGANAGKLLKNPKIAAYIAEKQAELDRRNGT", "values": [{"measurement": "soluble fraction (log2)", "value": 0.155}]}, {"sequence": "HMAAINPSALREPATPPEQLSAGDSVLHPRFGRGEILELQQQGGDPRAIVQFINEPKPRTLVLRYAQLRK", "values": [{"measurement": "soluble fraction (log2)", "value": -0.049}]}, {"sequence": "HMAAKADAVKKAIAAIGKVDASEDSKAKVEAARKAYAALTEDQKKLVEASQLKLLTEAEAAYQQAVEESKK", "values": [{"measurement": "soluble fraction (log2)", "value": 0.0525}]}, {"sequence": "HMAAMSLGERIGAHRKRMGISQEELGHRMGVSRQAVSKWETGRAVPDMENLLALARLFGVPVSELAD", "values": [{"measurement": "soluble fraction (log2)", "value": -0.177}]}, {"sequence": "HMAAPVGLTQRQMEVAALVADGLTNAEIGRRLHITERSAESHLERVRIRLGFRSRAQVAAWFVTQE", "values": [{"measurement": "soluble fraction (log2)", "value": -3.5}]}, {"sequence": "HMAATHYEGIKQDGETDDAVIERVLTGLSVTANKDDIFIVKTLIAGTKYSYTAYVYNGNAWAAM", "values": [{"measurement": "soluble fraction (log2)", "value": 0.0325}]}, {"sequence": "HMAATSTGFPGVEVRGNSIRVFFMYKRDRHAHTLPLEPTRNNIKHADQLRSAALFALRNGTYNEADFFPHS", "values": [{"measurement": "soluble fraction (log2)", "value": -1.53}]}, {"sequence": "HMAATVKVPDLTKMTPDEAQRALGQVGLKGKQGDDVDDDSVPVGYIAKQDEAPNSDAKAGDTITYHL", "values": [{"measurement": "soluble fraction (log2)", "value": 0.16}]}, {"sequence": "HMAAVSSHAVKQRIRSLIQAEDPASPLSDEALRLALSALGVEVSRRAVAKYRTSMDIPASSQRKK", "values": [{"measurement": "soluble fraction (log2)", "value": -0.252}]}, {"sequence": "HMADEDTILALAKEILASWPDKVEAYKNGNKGMLGLFMGELMKKSGGKANPKSASALIQKLLE", "values": [{"measurement": "soluble fraction (log2)", "value": -0.0387}]}, {"sequence": "HMADEIQLVVQVNGKLRGRIMVAPDASREEIEKTALADADVSRFLGDTPVKKVIIVPKRLVNIVAPAPK", "values": [{"measurement": "soluble fraction (log2)", "value": -0.0114}]}, {"sequence": "HMADENIELRKAGLKVTLPRVKILQILEAAKEPHMSAEDVYKALMEANEEVGLATVYRVLTQFESAGL", "values": [{"measurement": "soluble fraction (log2)", "value": -0.267}]}, {"sequence": "HMADGKWTLTDAGYTFTYSDGRKARGTWEDIDGEWYHFDRNGIMETGWKTVGNIRYHFNQDGSL", "values": [{"measurement": "soluble fraction (log2)", "value": -0.185}]}, {"sequence": "HMADIGRMKELIDILNRASAVYYQGKDEIMSNFEYDKLYDELVSLEKESGLVLAGSPTQKVGY", "values": [{"measurement": "soluble fraction (log2)", "value": 0.153}]}, {"sequence": "HMADKHVAAALLKLMDHLVGGRQYAFMKGRLTINKKVVLEATEVSAYRRGTGLSDADWQQRYE", "values": [{"measurement": "soluble fraction (log2)", "value": -1.97}]}, {"sequence": "HMADLKRLNEQIHYLGQYLSTKATYKEFLQANNKKIYRSEHQDEIAKYEEAAQFLKRSSPDGTIPTMKDLR", "values": [{"measurement": "soluble fraction (log2)", "value": -0.0887}]}, {"sequence": "HMADLSAYAGKEGMTDSVLRPSGKVDIEGHILDAVSRGDFIEKGKRVIVIKAEGSYLVVKKRMP", "values": [{"measurement": "soluble fraction (log2)", "value": -0.175}]}, {"sequence": "HMADLTEEQKTLFRLIRDLQPVSSKTLLENSGFTRSTQTRLLNGLIEKQIVIRTGNGPATRYSLR", "values": [{"measurement": "soluble fraction (log2)", "value": -0.246}]}, {"sequence": "HMADLTIDGVEYTKVSPTGTLTLEKVYTKNVTPADGQYYIQTGTKTVRVATDAEVAVIKAGGF", "values": [{"measurement": "soluble fraction (log2)", "value": 0.0157}]}, {"sequence": "HMADNKDMQAAFMEALNGLKEYAKVNGNIVTKEDVNSYFKDMHLDDNKYSMITGYLMANGITIKG", "values": [{"measurement": "soluble fraction (log2)", "value": 0.23}]}, {"sequence": "HMADPRFHSEIMLSKIESLLSGKADSDVSNYSIQGRSLTKMSLQELMDARESYDGLVKSEKAKLDAKY", "values": [{"measurement": "soluble fraction (log2)", "value": 0.0495}]}, {"sequence": "HMADPVTPQDLIRWSEALAGIARTGLGFTQSLYEQERFEEVLAVAADMRVAAGSSYNPDDLVHEWMKSVG", "values": [{"measurement": "soluble fraction (log2)", "value": -0.292}]}, {"sequence": "HMADQVVGQLGMVTQRIDNLQQTGRVSANGLDWAARSENGQPIPQGMPVEVLRIEGVKLIVRPVN", "values": [{"measurement": "soluble fraction (log2)", "value": -0.0238}]}, {"sequence": "HMADTIEVVVQVNGKVRAKISTSPEVFADSTKLQELALADANVQKFIAGQTIRKVIIPKGTKLLNIV", "values": [{"measurement": "soluble fraction (log2)", "value": -0.227}]}, {"sequence": "HMADTSPEGVQKLIKAFEQFGVSKDDIEGFIQRRVDAITPANVVSLRKIFTSLRDGMSSAKDWFKGA", "values": [{"measurement": "soluble fraction (log2)", "value": 0.00107}]}, {"sequence": "HMADVIKLVNTSVLNVRSGAGINYSKIGSLTQGTKVNIISESNGWSKINYNGKIGYISSQYVSEVS", "values": [{"measurement": "soluble fraction (log2)", "value": -0.206}]}, {"sequence": "HMADVLLKHGSSGDYVWDLQYRLKTLSLFDQEMTGYFGPHTRQAVVNFQRKYGLPADGVVGPATWRALRK", "values": [{"measurement": "soluble fraction (log2)", "value": -2.27}]}, {"sequence": "HMADVPSTIFEAYRILGLNPEAPPVAVKKVVDALRMSWHPDHARSEPDRRHREERIKQINAAWDLLKGV", "values": [{"measurement": "soluble fraction (log2)", "value": 0.148}]}, {"sequence": "HMADVYFDGKFLGETPVTVAVSTTGKPAHEISLIRGGYEPWSTTYQGNPRPGQTATVMAILVHA", "values": [{"measurement": "soluble fraction (log2)", "value": 0.287}]}, {"sequence": "HMAEAAVELSQQILARLLEAGGSLPLSDKSSPEDIHRLFGVSKRTFKKAIGGLYKKGLILIHPERIELP", "values": [{"measurement": "soluble fraction (log2)", "value": -0.588}]}, {"sequence": "HMAEAETVKFVGNSLLLVSGAAKGERLSVYTVGGQHVLSADATKPVDVAALHSGVYVVRTTNGVITKIVK", "values": [{"measurement": "soluble fraction (log2)", "value": -0.749}]}, {"sequence": "HMAEATATVTASEMVVRSGPSSSYSVLGSLEKGTVVTVLAASDGIAKISYKGNTGYARIVDMELNSA", "values": [{"measurement": "soluble fraction (log2)", "value": -0.0414}]}, {"sequence": "HMAEDDAVQKAVREAVAESADAVADYKAGSERALNFIVGVVMKKTRGKASPGEVHRLVKAEVEK", "values": [{"measurement": "soluble fraction (log2)", "value": 0.4}]}, {"sequence": "HMAEDLRTLDGIDEDLLRDLAQAGITTRDGLAELSIDELREITGVEPGEAEKIILAARAHWFETDE", "values": [{"measurement": "soluble fraction (log2)", "value": -0.135}]}, {"sequence": "HMAEEGEQAASNTAAQAEDRAAELAAAGEKGKQITKTLVAEFGIPKNEAYRLALDAVAAVKAER", "values": [{"measurement": "soluble fraction (log2)", "value": -0.105}]}, {"sequence": "HMAEEPLRIWTDLQGRSIEASFIKFSGNNIVIKMKSGRDYEVARSLFSPGDQKYLSDLKKSTPE", "values": [{"measurement": "soluble fraction (log2)", "value": -0.701}]}, {"sequence": "HMAEERVLSVPQSLAGERLDAALASLMPDYSRSRLASWIKEGLVTVDGAGAMPKQKLWGGETLRVQAQPT", "values": [{"measurement": "soluble fraction (log2)", "value": 0.463}]}, {"sequence": "HMAEKAVELTENEKAIQTILSNGALEIGELKTKLELSGKQWDVALKGLAKHGITQVSKVEGVVTVGL", "values": [{"measurement": "soluble fraction (log2)", "value": 0.136}]}, {"sequence": "HMAEKGIGRVNADWLNMRTSPGGEVLTVLKQGTELQVIGRSGSWLEVQHGNEQGYVSSRYITIQP", "values": [{"measurement": "soluble fraction (log2)", "value": -0.17}]}, {"sequence": "HMAEKVIVVADSITVGELAEKLNLPVTNLIGELFKNGIVSTINQRIDFETASIIVEELGLDVELERK", "values": [{"measurement": "soluble fraction (log2)", "value": -0.0299}]}, {"sequence": "HMAELNLPVRKIGGEDYYYRQVKKKETIYGISKELGITKEDIIKYNPSVASGLQRNQILYFPVKDFK", "values": [{"measurement": "soluble fraction (log2)", "value": -0.0957}]}, {"sequence": "HMAELVISVKADGTIHYQDRQLTKEALAAVLETRPEALLNLYVDEKAPFEAFVGVVDIARLKRGGHFVIST", "values": [{"measurement": "soluble fraction (log2)", "value": -0.632}]}, {"sequence": "HMAENPAYTKGVVNRLYKIRATPYYSYSYNVDQKTYEGRGKQYGEYENLHIGDTITVYYQRSNPSNSEA", "values": [{"measurement": "soluble fraction (log2)", "value": -0.414}]}, {"sequence": "HMAEPIEKIIIEGNQRIEALTIQSYLLLRVGEPFNRQLMNQTLKSLYATGYFSDVAVTRVSSSLLVK", "values": [{"measurement": "soluble fraction (log2)", "value": 0.133}]}, {"sequence": "HMAEPLEIGDTVRIIDGFYGGEIGVISELVNPDAKNAEFEQVRVRLDQDTELALPIHNVERVRL", "values": [{"measurement": "soluble fraction (log2)", "value": 0.25}]}, {"sequence": "HMAEPRVQEVYFEFDGKQVEAGQVVSLIEQAYKNEGHQIGRIKDLKVYINSEEGKAYYVINGDDGEGKYIE", "values": [{"measurement": "soluble fraction (log2)", "value": 0.0517}]}, {"sequence": "HMAESLHVTAAALFEGRAMLGIDGSRRLLRVGETSPEGVKLVSATAREAVIEIDGRRQTLAPGRDT", "values": [{"measurement": "soluble fraction (log2)", "value": 0.0658}]}]}
